According to the Human Domainome abundance scans (Beltran et al. 2025):

B1: Homeobox protein cut-like 1, residues 941 to 1008; numbered along this chain, P39880 (parent)
chain: QEVDTIELTRQVKEKLAKNGICQRIFGEKVLGLSQGSVSDMLSRPKPWSKLTQKGREPFIRMQLWLNG

Variants of: B1
Assay: abundance fitness (aPCA) (normalised: wild type 0, dead -1); higher = more abundant; growth selection in yeast, the domain comes from the species named
Conditions: Homo sapiens

Abundance fitness: each site, then its substitutions
T52: C -0.111, M -0.157, A -0.033, I -0.009, K -0.109, E -0.343, Y -0.143, G -0.216, N -0.009, F -0.187, Q -0.22, P -0.343, H -0.394, S 0.085, L -0.018
M62: C -0.226, T -0.274, Y -0.959, I -0.346, R -0.855, A -0.141, N -1.08, K -0.793, L -0.227, H -1.33, G -0.591, F 0, P -0.93, W -0.335, V -0.388, S -0.619, D -0.86
R61: E -0.479, T -0.131, G -0.582, P -0.788, F -0.991, L -0.174, S -0.386, M -0.308, A -0.183, H -0.393, I -0.706, V -0.487, W -0.619, Q -0.131, Y -0.365, N -0.041, C -0.277
Q63: K 0.017, C -0.441, E -0.272, W -0.032, A -0.268, I -0.2, G -0.098, F -0.258, Y -0.069, L -0.424, H 0.041, T -0.184, V -0.262, D -0.389, R 0.012, N -0.317, S -0.219, P -0.724, M -0.124
E57: R -0.223, M -0.203, L -0.194, H -0.213, W -0.148, T -0.15, Q -0.147, P -0.744, G -0.126, D -0.162, A -0.046, K -0.091, I -0.097, Y -0.453, V -0.192, N -0.055, F -0.294, S -0.192
K54: Y -0.431, N -0.319, Q -0.107, R -0.074, H -0.111, W -0.327, F -0.199, E 0.159, M -0.263, L -0.174, T -0.101, C -0.317, I -0.192, G -0.223, A 0.011, V -0.346, P -0.439, D -0.098
P58: G -0.201, R -0.049, C 0.099, K -0.04, V -0.014, Q -0.036, A -0.102, L 0.109, S -0.093, N 0.025, I 0.117, W -0.007, F 0.006, T 0.052, D -0.13, Y -0.1, H -0.135
W65: H -0.864, C -0.718, F -0.326, D -0.994, P -1.22, T -1.31, A -0.666, Y -0.309, M -0.744, E -0.968, N -1.45, I -1.3, G -1.01, Q -1.24, R -0.76, K -0.715
P47: D -0.158, F -0.012, H -0.133, M -0.12, N -0.371, C -0.086, K -0.029, L -0.029, V -0.079, R -0.134, I -0.286, Q -0.068, S -0.086, W 0.056, G -0.123, A -0.084, Y -0.25, E -0.067
K50: A -0.098, M -0.012, L -0.104, W -0.247, N -0.221, G -0.194, H -0.184, V -0.066, Y -0.138, F -0.141, Q 0.028, T -0.059, D 0.041, E 0.022, S -0.04, C -0.07
L64: K 0.158, H -0.137, A 0.087, G -0.074, Y 0.005, E 0.185, P -0.562, S 0.068, F -0.326, R 0.103, I -0.195, C -0.181, V -0.135, Q 0.144, N 0.065, T 0.015, M -0.049
F59: I -0.525, H -1.18, V -0.761, M -0.568, N -1.2, W -0.128, Y -0.006, R -0.7, S -0.995, P -0.833, T -0.686, Q -1.13, E -0.431, A -0.813, C -0.817, G -1.17, K -0.954
S49: V -0.177, K 0.029, R -0.011, D -0.241, E -0.151, P -0.231, C -0.237, A -0.072, H 0.025, W -0.198, Q -0.169, G -0.133, F -0.19, M -0.346, T -0.131, I -0.43, Y -0.255
Q53: G -0.132, P 0.031, K 0.076, M -0.095, H -0.179, F -0.217, T -0.014, I -0.119, Y -0.27, L -0.082, V -0.095, D 0.032, N -0.045, E -0.139, S -0.022, R -0.053, C 0.012, W -0.173
G55: Y -0.104, V -0.01, T -0.162, F 0.042, I 0.093, M -0.018, C -0.17, L -0.045, E 0.17, K -0.163, N -0.792, Q 0.033, D 0.084, H -0.132, P -0.517, W -0.189, A 0.016, R -0.38
R56: N -1.16, T -0.373, E -1.2, K -0.045, P -1.06, A -0.479, L -0.418, Y -0.444, V -0.39, S -0.598, D -1.13, F -0.659, C -0.525, W -0.456, H -0.676, Q -0.287, M -0.238, I -0.6
K46: N -0.461, R -0.099, P 0.112, Y -0.059, S 0.009, V -0.112, W -0.285, Q -0.041, T -0.205
I60: V 0.025, F -0.205, N -0.051, Q -0.142, G -0.383, K 0.013, E -0.152, W -0.334, C -0.139, T -0.008, R 0.071, A -0.073, Y 0.004, L -0.015, M -0.054, D -0.29, P -0.911, S -0.141
L51: G -1.04, Q -0.969, I -0.113, Y -0.474, A -0.723, E -0.929, P -1.07, W -0.08, M -0.125, S -0.92, C -0.439, V -0.394, T -0.745, R -0.93
W48: P -0.999, I -1, D -1.08, R -0.729, H -1.11, M -0.65, A -0.904, T -1.1, N -1.46, Y -0.78, Q -0.867, E -0.774, F -0.311, V -0.672, L -0.398, S -0.817, G -0.919
